From the supplement of paper PMC7877785
± gives the uncertainty stated by the source.

Assay: self-splicing fitness, log relative to wild type (ln ratio); higher = more splicing; Tetrahymena group I intron in knt gene, E. coli kanamycin selection, DiMSum; sequences stand for … in CUCUCU…GGAGGGAAAAGUUAUCAGGCAUGCACCUGGUAGCUAGUCUUUAAACCAAUAGAUUGCAUCGGUUUAAAAGGCAAGACCGUCAAAUUGCGGGAAAGGGGUCAACAGCCGUUCAGUACCAAGUCUCAGGGGAAACUUUGAGAUGGCCUUGCAAAGGGUAUGGUAAUAAGCUGACGGACAUGGUCCUAACCACGCAGCCAAGUCCUAAGUCAACAGAUCUUCUGUUGAUAUGGAUGCAGUUCACAGACUAAAUGUCGGUCGGGGAAGAUGUAUUCUUCUCAUAAGAUAUAGUCGGACCUCUCCUUAAUGGGAGCUAGCGGAUGAAGUGAUGCAACACUGGAGCCGCUGGGAACUAAUUUGUAUGCGAAAGUAUAUUGAUUAGUUUUGGAGUACUCGUGGUCG
How it was run: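 Six replicate transformations of E. coli BL21(DE3) with a pET-22b(+) library were grown overnight at 37°C or 30°C. The library randomised all eight P1ex-region intron nucleotides, the intron lying in the knt kanamycin-resistance gene, and plates were LB agar with or without 25 μg/mL kanamycin plus 100 μg/mL carbenicillin, 50 μM IPTG and 0.2% rhamnose. Pooled colonies were amplicon-sequenced on an Illumina HiSeq 2500, and fitness is the DiMSum error-weighted combination of wild-type-normalised replicate fold changes, kanamycin versus none.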

| Sequence | self-splicing fitness (ln) (30 °C) | self-splicing fitness (ln) (37 °C) |
| --- | --- | --- |
| GGCUAGCAAUAUUACGUGUA | -0.9 ± 0.093 | -0.236 ± 0.095 |
| GGCUAGCAAUAUUACGUUCU | -0.249 ± 0.082 | -0.358 ± 0.1 |
| GGGAAGCAAUAUUACGAAGC | -2.84 ± 0.23 | -1.75 ± 0.34 |
| GGGAAGCAAUAUUACGAAUC | -0.774 ± 0.11 | -0.499 ± 0.14 |
| GGGAAGCAAUAUUACGACAU | -0.662 ± 0.015 | -0.341 ± 0.034 |
| GGGAAGCAAUAUUACGACGA | -0.787 ± 0.093 | 0.0557 ± 0.11 |
| GGGAAGCAAUAUUACGAGGG | -4.09 ± 0.24 | -2.67 ± 0.19 |
| GGGAAGCAAUAUUACGCAUU | -2.94 ± 0.34 | -1.53 ± 0.44 |
| GGGAAGCAAUAUUACGCCCG |  | 0.0331 ± 0.36 |
| GGGAAGCAAUAUUACGCGUU | -2.67 ± 0.24 | -1.49 ± 0.2 |
| GGGAAGCAAUAUUACGGCAG | -2.64 ± 0.34 |  |
| GGGAAGCAAUAUUACGGCGA | -0.443 ± 0.12 | 0.0664 ± 0.12 |
| GGGAAGCAAUAUUACGGCGC | -2.22 ± 0.1 | -1.1 ± 0.053 |
| GGGAAGCAAUAUUACGGCGU | -0.0838 ± 0.13 | -0.241 ± 0.14 |
| GGGAAGCAAUAUUACGGUAA | -3.01 ± 0.41 | -0.554 ± 0.17 |
| GGGAAGCAAUAUUACGGUCA | -0.346 ± 0.1 | -0.237 ± 0.11 |
| GGGAAGCAAUAUUACGUGAA | -2.39 ± 0.18 | -0.692 ± 0.17 |
| GGGAAGCAAUAUUACGUGCA | -1.36 ± 0.1 | 0.0267 ± 0.12 |
| GGGAAGCAAUAUUACGUGGG | -3.64 ± 0.29 | -2.46 ± 0.24 |
| GGGAAGCAAUAUUACGUGUC | -3.63 ± 0.24 | -2.28 ± 0.2 |
| GGGAAGCAAUAUUACGUUAG | -2.72 ± 0.27 | -0.794 ± 0.24 |
| GGGAAGCAAUAUUACGUUCU | -3.66 ± 0.22 | -3.52 ± 0.25 |
| GGGAAGCAAUAUUACGUUGG | -3.77 ± 0.3 | -1.1 ± 0.24 |
| GGGAAGCAAUAUUACGUUUG | -2.72 ± 0.22 | -1.74 ± 0.21 |
| GGGCAGCAAUAUUACGAAAG | -3.58 ± 0.28 | -2.92 ± 0.35 |

| Sequence | self-splicing fitness (ln) (30 °C) | self-splicing fitness (ln) (37 °C) |
| --- | --- | --- |
| GGGCAGCAAUAUUACGACAU | -0.411 ± 0.013 | 0.0276 ± 0.033 |
| GGGCAGCAAUAUUACGACUC | 0.392 ± 0.12 | 0.247 ± 0.17 |
| GGGCAGCAAUAUUACGAGGU | -4.65 ± 0.38 | -2.77 ± 0.24 |
| GGGCAGCAAUAUUACGAGUU | -2.81 ± 0.2 | -1.27 ± 0.22 |
| GGGCAGCAAUAUUACGAUGC | -1.98 ± 0.2 | -1.11 ± 0.24 |
| GGGCAGCAAUAUUACGCAAU | -0.2 ± 0.071 | -0.127 ± 0.085 |
| GGGCAGCAAUAUUACGCACU | -1.6 ± 0.32 | -1.42 ± 0.24 |
| GGGCAGCAAUAUUACGCAGG | -2.6 ± 0.18 | -1.03 ± 0.19 |
| GGGCAGCAAUAUUACGCAGU | -0.715 ± 0.14 | -0.784 ± 0.18 |
| GGGCAGCAAUAUUACGCCUA | -0.197 ± 0.12 | 0.428 ± 0.14 |
| GGGCAGCAAUAUUACGCGGA | -1.23 ± 0.15 | -0.758 ± 0.1 |
| GGGCAGCAAUAUUACGCGUA | -0.501 ± 0.077 | -0.0324 ± 0.077 |
| GGGCAGCAAUAUUACGCUUA | 0.359 ± 0.12 | 0.25 ± 0.15 |
| GGGCAGCAAUAUUACGGAGG | -4.42 ± 0.26 | -3.03 ± 0.23 |
| GGGCAGCAAUAUUACGGAUC | -0.301 ± 0.057 | 0.486 ± 0.076 |
| GGGCAGCAAUAUUACGGCCA | 0.461 ± 0.14 | 0.258 ± 0.17 |
| GGGCAGCAAUAUUACGGUUG | -1.94 ± 0.12 | -1.11 ± 0.13 |
| GGGCAGCAAUAUUACGUAAU | -0.917 ± 0.063 | 0.209 ± 0.085 |
| GGGCAGCAAUAUUACGUACA | -0.35 ± 0.084 | -0.0196 ± 0.1 |
| GGGCAGCAAUAUUACGUACG | -0.697 ± 0.12 | -0.0767 ± 0.14 |
| GGGCAGCAAUAUUACGUAUC | -0.951 ± 0.068 | -0.0249 ± 0.1 |
| GGGCAGCAAUAUUACGUCCA | -1.17 ± 0.23 | -1.01 ± 0.28 |
| GGGCAGCAAUAUUACGUGAC | -0.997 ± 0.13 | -1.03 ± 0.21 |
| GGGCAGCAAUAUUACGUGAG | -0.483 ± 0.085 | -0.435 ± 0.1 |
| GGGCAGCAAUAUUACGUGUU | -1.64 ± 0.072 | -0.906 ± 0.08 |

| Sequence | self-splicing fitness (ln) (30 °C) | self-splicing fitness (ln) (37 °C) |
| --- | --- | --- |
| GGGGAGCAAUAUUACGAACA | -1.6 ± 0.35 | -0.419 ± 0.28 |
| GGGGAGCAAUAUUACGACAU | -2.17 ± 0.022 | -1.15 ± 0.037 |
| GGGGAGCAAUAUUACGACCA | -0.254 ± 0.14 | 0.709 ± 0.23 |
| GGGGAGCAAUAUUACGCAAG | -3.34 ± 0.26 | -1.28 ± 0.2 |
| GGGGAGCAAUAUUACGCAGA |  | -2.07 ± 0.47 |
| GGGGAGCAAUAUUACGCCAA |  | -0.647 ± 0.44 |
| GGGGAGCAAUAUUACGCCAU |  | -1.58 ± 0.32 |
| GGGGAGCAAUAUUACGCGAA | -2.75 ± 0.4 | 0.457 ± 0.31 |
| GGGGAGCAAUAUUACGCUAU | -3.31 ± 0.36 | -1.88 ± 0.38 |
| GGGGAGCAAUAUUACGCUUG | -2.43 ± 0.17 | -0.967 ± 0.18 |
| GGGGAGCAAUAUUACGGUAC |  | 0.506 ± 0.25 |
| GGGGAGCAAUAUUACGUCGA | 0.294 ± 0.28 |  |
| GGGGAGCAAUAUUACGUGCU | -1.81 ± 0.16 | -2.14 ± 0.33 |
| GGGGAGCAAUAUUACGUGGC | -3.07 ± 0.48 | -1.12 ± 0.47 |
| GGGGAGCAAUAUUACGUGGG | -2.75 ± 0.32 |  |
| GGGGAGCAAUAUUACGUUAA | -2.53 ± 0.4 | -1.95 ± 0.35 |
| GGGGAGCAAUAUUACGUUUU | -3.04 ± 0.18 | -2.86 ± 0.25 |
| GGGUAGCAAUAUUACGACAU | -0.113 ± 0.015 | 0.159 ± 0.034 |
| GGGUAGCAAUAUUACGACUA | -0.339 ± 0.1 | 0.878 ± 0.15 |
| GGGUAGCAAUAUUACGAUAC | -1.98 ± 0.22 | -0.628 ± 0.24 |
| GGGUAGCAAUAUUACGAUGG | -2.86 ± 0.24 | -2.65 ± 0.37 |
| GGGUAGCAAUAUUACGAUUA | -0.341 ± 0.13 | -0.00462 ± 0.1 |
| GGGUAGCAAUAUUACGCAUC | -2.34 ± 0.29 | -2.48 ± 0.24 |
| GGGUAGCAAUAUUACGCCGU | -0.463 ± 0.2 | 0.576 ± 0.23 |
| GGGUAGCAAUAUUACGCGUG | -0.787 ± 0.13 | 0.175 ± 0.12 |

| Sequence | self-splicing fitness (ln) (30 °C) | self-splicing fitness (ln) (37 °C) |
| --- | --- | --- |
| GGGUAGCAAUAUUACGCUUA | -0.435 ± 0.15 | -0.957 ± 0.13 |
| GGGUAGCAAUAUUACGGCUU | -0.41 ± 0.11 | 0.232 ± 0.12 |
| GGGUAGCAAUAUUACGUGUA | -0.214 ± 0.12 | -0.897 ± 0.14 |
| GGGUAGCAAUAUUACGUUAU | -3.17 ± 0.25 | -1.33 ± 0.15 |
| GGUAAGCAAUAUUACGAAUC | -0.515 ± 0.13 | -0.339 ± 0.16 |
| GGUAAGCAAUAUUACGAUCG | -0.894 ± 0.1 | 0.451 ± 0.17 |
| GGUAAGCAAUAUUACGAUUG | -3.48 ± 0.48 | -3.44 ± 0.39 |
| GGUAAGCAAUAUUACGCGGA | -0.857 ± 0.18 | -2.25 ± 0.2 |
| GGUAAGCAAUAUUACGGCAC | -0.762 ± 0.096 | -0.531 ± 0.15 |
| GGUAAGCAAUAUUACGGGGC | -3.8 ± 0.32 | -2.09 ± 0.31 |
| GGUAAGCAAUAUUACGGUUA | -0.532 ± 0.12 | -0.38 ± 0.096 |
| GGUAAGCAAUAUUACGUAUA | -1.77 ± 0.21 | -1.68 ± 0.26 |
| GGUAAGCAAUAUUACGUCAA | -1.9 ± 0.26 | -1.62 ± 0.2 |
| GGUAAGCAAUAUUACGUGAC | -1.4 ± 0.076 | -1.66 ± 0.12 |
| GGUAAGCAAUAUUACGUGAG | -1.03 ± 0.079 | 0.0462 ± 0.09 |
| GGUAAGCAAUAUUACGUGGA | -2.91 ± 0.21 | -2.52 ± 0.2 |
| GGUAAGCAAUAUUACGUUCG | -0.34 ± 0.15 | -0.4 ± 0.18 |
| GGUAAGCAAUAUUACGUUGA | -1.76 ± 0.21 | -1.03 ± 0.15 |
| GGUCAGCAAUAUUACGAAGG | -0.594 ± 0.14 | -0.251 ± 0.22 |
| GGUCAGCAAUAUUACGACAC | 0.184 ± 0.32 | -0.0653 ± 0.25 |
| GGUCAGCAAUAUUACGACAU | 0.0683 ± 0.013 | 0.148 ± 0.033 |
| GGUCAGCAAUAUUACGACCA | -0.982 ± 0.16 | -0.657 ± 0.23 |
